Experimental data taken from patent US20250145684A1 (IMMATICS BIOTECHNOLOGIES, published 2025).

The binders below were run against T1, HLA-B*44:05 (human) (assay: UV peptide exchange ELISA).
T1 construct: MHC monomer first loaded with a UV-sensitive peptide that is cleaved by UV light and exchanged for the test peptide
Summary of the method: (§1)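 Peptide–MHC complexes formed by UV-mediated exchange of a photocleavable ligand; exchange yield assessed by ELISA on streptavidin-coated plates, samples diluted 100-fold. Bound complexes detected with HRP anti-β2m and TMB at 450 nm against HLA-A*02:01 monomer standards (15–500 ng/ml).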

| binding result | Binder |
| --- | --- |
| binds | EEFLTPKKL [EEFLTPKKL (SEQ ID NO: 290)] |

The binders below were run against T2, HLA-B*08:01 (human) (assay: UV peptide exchange ELISA).
T2 construct: MHC monomer first loaded with a UV-sensitive peptide that is cleaved by UV light and exchanged for the test peptide
Summary of the method: as §1

| peptide exchange yield | Binder |
| --- | --- |
| 20 to 50% | LLKGKPRAL [LLKGKPRAL (SEQ ID NO: 9)] |
| 20 to 50% | FDFRGKTKVF [FDFRGKTKVF (SEQ ID NO: 59)] |
| 50 to 75% | ELILKHSL [ELILKHSL (SEQ ID NO: 52)] |
| 50 to 75% | RLKLRYEGL [RLKLRYEGL (SEQ ID NO: 74)] |
| 20 to 50% | VLLMGPLHL [VLLMGPLHL (SEQ ID NO: 100)] |
| 20 to 50% | NVKIRFLE [NVKIRFLE (SEQ ID NO: 99)] |
| 50 to 75% | DLKKLVDSL [DLKKLVDSL (SEQ ID NO: 43)] |
| 50 to 75% | QILQHHVL [QILQHHVL (SEQ ID NO: 87)] |
| 20 to 50% | MYRKEQYL [MYRKEQYL (SEQ ID NO: 81)] |
| 20 to 50% | FILGREAGAL [FILGREAGAL (SEQ ID NO: 64)] |
| 20 to 50% | RPAGVFEL [RPAGVFEL (SEQ ID NO: 96)] |
| 20 to 50% | DLRKLKRQL [DLRKLKRQL (SEQ ID NO: 53)] |
| 50 to 75% | EVYQKIIL [EVYQKIIL (SEQ ID NO: 38)] |
| 50 to 75% | LPLAHHIQL [LPLAHHIQL (SEQ ID NO: 72)] |
| 20 to 50% | RGALRTLSL [RGALRTLSL (SEQ ID NO: 41)] |
| 20 to 50% | ILCGSRKMPL [ILCGSRKMPL (SEQ ID NO: 56)] |
| 20 to 50% | MLLCLSLEL [MLLCLSLEL (SEQ ID NO: 88)] |
| 20 to 50% | AARLRPAL [AARLRPAL (SEQ ID NO: 7)] |
| 50 to 75% | VPYTKVQL [VPYTKVQL (SEQ ID NO: 89)] |
| 20 to 50% | ESMLKTTL [ESMLKTTL (SEQ ID NO: 40)] |
| 50 to 75% | HLTNRVLSL [HLTNRVLSL (SEQ ID NO: 44)] |
| 50 to 75% | DLKIPRYPV [DLKIPRYPV (SEQ ID NO: 68)] |
| 20 to 50% | YVKRKTNVL [YVKRKTNVL (SEQ ID NO: 63)] |
| 50 to 75% | TLRLLVAAL [TLRLLVAAL (SEQ ID NO: 50)] |

| peptide exchange yield | Binder |
| --- | --- |
| 50 to 75% | MLHIKKAEV [MLHIKKAEV (SEQ ID NO: 60)] |
| 20 to 50% | HSRVKLAQL [HSRVKLAQL (SEQ ID NO: 47)] |
| 20 to 50% | NLLMRNVL [NLLMRNVL (SEQ ID NO: 65)] |
| 20 to 50% | YITRQFVQF [YITRQFVQF (SEQ ID NO: 84)] |
| 50 to 75% | FVLLRSVDL [FVLLRSVDL (SEQ ID NO: 83)] |
| 50 to 75% | DQLLRHVM [DQLLRHVM (SEQ ID NO: 94)] |
| 50 to 75% | FVRPKLVTI [FVRPKLVTI (SEQ ID NO: 8)] |
| 50 to 75% | HPRLKVNLL [HPRLKVNLL (SEQ ID NO: 76)] |
| 20 to 50% | IVKIKVQEL [IVKIKVQEL (SEQ ID NO: 36)] |
| 50 to 75% | TLKAMVQAW [TLKAMVQAW (SEQ ID NO: 92)] |
| 20 to 50% | TIGLGLHSL [TIGLGLHSL (SEQ ID NO: 90)] |
| 20 to 50% | ELARQRLL [ELARQRLL (SEQ ID NO: 69)] |
| 50 to 75% | LMKEKIQEM [LMKEKIQEM (SEQ ID NO: 93)] |
| 20 to 50% | QVMPKTGL [QVMPKTGL (SEQ ID NO: 4)] |
| 20 to 50% | SIKKELVVL [SIKKELVVL (SEQ ID NO: 61)] |
| 20 to 50% | VLLSRRTAL [VLLSRRTAL (SEQ ID NO: 55)] |
| 20 to 50% | LPKKMKLL [LPKKMKLL (SEQ ID NO: 58)] |
| 50 to 75% | HIRIKHTF [HIRIKHTF (SEQ ID NO: 71)] |
| 20 to 50% | SIRKRPML [SIRKRPML (SEQ ID NO: 82)] |
| 20 to 50% | EAFSRASL [EAFSRASL (SEQ ID NO: 37)] |
| 20 to 50% | IYRKKYIL [IYRKKYIL (SEQ ID NO: 34)] |
| 20 to 50% | GLARIYSF [GLARIYSF (SEQ ID NO: 79)] |
| 20 to 50% | DMNTKRAIHTL [DMNTKRAIHTL (SEQ ID NO: 67)] |
| 50 to 75% | EVYLRMYQL [EVYLRMYQL (SEQ ID NO: 80)] |

| peptide exchange yield | Binder |
| --- | --- |
| 50 to 75% | YARLKNVLL [YARLKNVLL (SEQ ID NO: 75)] |
| 20 to 50% | ELALRQTV [ELALRQTV (SEQ ID NO: 48)] |
| 20 to 50% | NRQKRFVL [NRQKRFVL (SEQ ID NO: 6)] |
| 50 to 75% | FLRVFTDSL [FLRVFTDSL (SEQ ID NO: 49)] |
| 20 to 50% | DLSRRDVSL [DLSRRDVSL (SEQ ID NO: 54)] |
| 20 to 50% | MPLKHYLL [MPLKHYLL (SEQ ID NO: 57)] |
| 50 to 75% | ERRVKVSSL [ERRVKVSSL (SEQ ID NO: 51)] |
| 20 to 50% | DLKKTRVL [DLKKTRVL (SEQ ID NO: 66)] |
| 50 to 75% | STMPKILAL [STMPKILAL (SEQ ID NO: 5)] |
| 20 to 50% | FMLAKEASL [FMLAKEASL (SEQ ID NO: 62)] |
| 50 to 75% | LPKLPVPPL [LPKLPVPPL (SEQ ID NO: 77)] |
| 20 to 50% | VLRRKTLL [VLRRKTLL (SEQ ID NO: 42)] |
| 20 to 50% | RPKGTPPL [RPKGTPPL (SEQ ID NO: 70)] |
| 20 to 50% | SRNPRGFFL [SRNPRGFFL (SEQ ID NO: 95)] |
| 20 to 50% | MFPARGVPL [MFPARGVPL (SEQ ID NO: 73)] |
| 50 to 75% | RLKVALSTL [RLKVALSTL (SEQ ID NO: 45)] |
| 20 to 50% | DGHMKVFSL [DGHMKVFSL (SEQ ID NO: 78)] |
| 20 to 50% | QKPRKKKL [QKPRKKKL (SEQ ID NO: 85)] |
| 20 to 50% | DAKSKIEQI [DAKSKIEQI (SEQ ID NO: 39)] |
| 50 to 75% | DLRNKIIAA [DLRNKIIAA (SEQ ID NO: 46)] |
| 20 to 50% | RPIHHPLVL [RPIHHPLVL (SEQ ID NO: 86)] |
| 20 to 50% | MPMQDIKMIL [MPMQDIKMIL (SEQ ID NO: 91)] |
| 20 to 50% | ELFQRPVL [ELFQRPVL (SEQ ID NO: 35)] |
| 20 to 50% | EPVNTNVVL [EPVNTNVVL (SEQ ID NO: 98)] |
